Laboratory results: patent US20140274782A1, “AFFINITY REAGENTS AND METHODS FOR DETECTION, PURIFICATION, AND PROTEOMIC ANALYSIS OF METHYLATED PROTEINS” (The Board of Trustees of the Leland Stanford Junior …, priority 2013, published 2014)

T1: G9a and GLP (Homo sapiens, UniProt Q96KQ7+Q9H9B1)
T1 sequence (Q96KQ7 2-1210 limits assumed): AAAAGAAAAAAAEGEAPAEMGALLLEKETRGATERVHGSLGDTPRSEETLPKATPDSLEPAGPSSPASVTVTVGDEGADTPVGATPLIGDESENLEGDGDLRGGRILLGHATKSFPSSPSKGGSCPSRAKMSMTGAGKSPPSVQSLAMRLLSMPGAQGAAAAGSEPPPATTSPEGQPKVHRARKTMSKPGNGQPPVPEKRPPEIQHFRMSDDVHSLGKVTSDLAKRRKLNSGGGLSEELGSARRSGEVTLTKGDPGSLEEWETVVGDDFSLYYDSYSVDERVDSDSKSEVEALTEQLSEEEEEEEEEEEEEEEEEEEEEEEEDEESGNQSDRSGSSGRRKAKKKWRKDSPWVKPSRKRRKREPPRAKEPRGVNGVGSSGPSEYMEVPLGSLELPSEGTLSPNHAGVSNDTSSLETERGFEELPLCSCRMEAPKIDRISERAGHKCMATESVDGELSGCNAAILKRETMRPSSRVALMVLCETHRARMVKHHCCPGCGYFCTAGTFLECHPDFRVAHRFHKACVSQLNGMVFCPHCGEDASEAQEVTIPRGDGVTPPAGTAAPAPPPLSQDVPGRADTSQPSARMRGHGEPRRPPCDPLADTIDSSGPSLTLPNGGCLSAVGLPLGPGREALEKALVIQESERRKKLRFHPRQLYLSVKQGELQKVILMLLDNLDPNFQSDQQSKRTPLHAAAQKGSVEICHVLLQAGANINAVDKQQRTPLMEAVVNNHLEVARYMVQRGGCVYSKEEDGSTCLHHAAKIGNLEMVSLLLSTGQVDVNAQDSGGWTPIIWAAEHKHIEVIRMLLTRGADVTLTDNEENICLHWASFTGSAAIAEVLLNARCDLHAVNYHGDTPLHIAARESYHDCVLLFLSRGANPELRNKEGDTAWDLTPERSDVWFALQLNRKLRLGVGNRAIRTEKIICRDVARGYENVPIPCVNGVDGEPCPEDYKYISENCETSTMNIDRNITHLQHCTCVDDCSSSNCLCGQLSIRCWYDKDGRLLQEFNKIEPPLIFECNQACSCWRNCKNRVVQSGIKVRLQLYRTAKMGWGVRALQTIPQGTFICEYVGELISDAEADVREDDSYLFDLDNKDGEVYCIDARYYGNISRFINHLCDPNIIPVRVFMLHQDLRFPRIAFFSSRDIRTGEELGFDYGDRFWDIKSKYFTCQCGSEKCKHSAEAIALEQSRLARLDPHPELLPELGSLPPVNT
T1 sequence (Q9H9B1 2-1298 limits assumed): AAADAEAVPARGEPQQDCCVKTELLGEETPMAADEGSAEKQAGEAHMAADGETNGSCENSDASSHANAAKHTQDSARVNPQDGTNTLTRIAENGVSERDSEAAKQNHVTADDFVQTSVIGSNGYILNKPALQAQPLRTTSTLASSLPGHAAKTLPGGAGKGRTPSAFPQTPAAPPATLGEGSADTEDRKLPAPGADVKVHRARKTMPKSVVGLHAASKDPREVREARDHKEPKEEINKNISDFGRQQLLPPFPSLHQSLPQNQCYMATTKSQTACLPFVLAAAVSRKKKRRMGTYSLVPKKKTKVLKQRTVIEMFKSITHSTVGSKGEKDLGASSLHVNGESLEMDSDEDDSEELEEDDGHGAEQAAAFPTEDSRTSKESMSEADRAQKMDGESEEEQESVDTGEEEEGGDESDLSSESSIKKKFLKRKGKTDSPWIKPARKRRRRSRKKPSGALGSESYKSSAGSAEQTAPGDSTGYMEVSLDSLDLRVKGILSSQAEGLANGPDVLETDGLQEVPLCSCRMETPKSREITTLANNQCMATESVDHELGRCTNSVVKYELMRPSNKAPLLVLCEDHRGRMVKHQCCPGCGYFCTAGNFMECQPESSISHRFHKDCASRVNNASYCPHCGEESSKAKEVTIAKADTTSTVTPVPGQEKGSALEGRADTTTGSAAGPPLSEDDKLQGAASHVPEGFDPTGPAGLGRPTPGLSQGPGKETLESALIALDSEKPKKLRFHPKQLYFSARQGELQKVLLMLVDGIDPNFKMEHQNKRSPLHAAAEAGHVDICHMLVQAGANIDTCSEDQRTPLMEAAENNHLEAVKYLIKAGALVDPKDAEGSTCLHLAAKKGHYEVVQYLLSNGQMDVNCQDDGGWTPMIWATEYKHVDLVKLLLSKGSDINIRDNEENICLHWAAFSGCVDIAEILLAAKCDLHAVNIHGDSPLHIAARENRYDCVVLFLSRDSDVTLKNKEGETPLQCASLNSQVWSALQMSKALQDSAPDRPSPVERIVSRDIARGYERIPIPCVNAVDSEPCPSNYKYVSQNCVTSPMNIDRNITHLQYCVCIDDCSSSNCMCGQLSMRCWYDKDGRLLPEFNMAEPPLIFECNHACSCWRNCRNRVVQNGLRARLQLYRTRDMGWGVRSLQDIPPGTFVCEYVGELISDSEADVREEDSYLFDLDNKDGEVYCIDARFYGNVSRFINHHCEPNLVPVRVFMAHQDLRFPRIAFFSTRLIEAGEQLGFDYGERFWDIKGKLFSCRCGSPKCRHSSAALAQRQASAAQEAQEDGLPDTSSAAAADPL

B1: CHERP (protein, UniProt Q8IWX8 1-916, looked up)
Calcium homeostasis …: MEMPLPPDDQELRNVIDKLAQFVARNGPEFEKMTMEKQKDNPKFSFLFGGEFYSYYKCKLALEQQQLICKQQTPELEPAATMPPLPQPPLAPAAPIPPAQGAPSMDELIQQSQWNLQQQEQHLLALRQEQVTAAVAHAVEQQMQKLLEETQLDMNEFDNLLQPIIDTCTKDAISAGKNWMFSNAKSPPHCELMAGHLRNRITADGAHFELRLHLIYLINDVLHHCQRKQARELLAALQKVVVPIYCTSFLAVEEDKQQKIARLLQLWEKNGYFDDSIIQQLQSPALGLGQYQATLINEYSSVVQPVQLAFQQQIQTLKTQHEEFVTSLAQQQQQQQQQQQQLQMPQMEAEVKATPPPPAPPPAPAPAPAIPPTTQPDDSKPPIQMPGSSEYEAPGGVQDPAAAGPRGPGPHDQIPPNKPPWFDQPHPVAPWGQQQPPEQPPYPHHQGGPPHCPPWNNSHEGMWGEQRGDPGWNGQRDAPWNNQPDAAWNSQFEGPWNSQHEQPPWGGGQREPPFRMQRPPHFRGPFPPHQQHPQFNQPPHPHNFNRFPPRFMQDDFPPRHPFERPPYPHRFDYPQGDFPAEMGPPHHHPGHRMPHPGINEHPPWAGPQHPDFGPPPHGFNGQPPHMRRQGPPHINHDDPSLVPNVPYFDLPAGLMAPLVKLEDHEYKPLDPKDIRLPPPMPPSERLLAAVEAFYSPPSHDRPRNSEGWEQNGLYEFFRAKMRARRRKGQEKRNSGPSRSRSRSKSRGRSSSRSNSRSSKSSGSYSRSRSRSCSRSYSRSRSRSRSRSRSSRSRSRSQSRSRSKSYSPGRRRRSRSRSPTPPSSAGLGSNSAPPIPDSRLGEENKGHQMLVKMGWSGSGGLGAKEQGIQDPIKGGDVRDKWDQYKGVGVALDDPYENYRRNKSYSFIARMKARDECK
B2: ATXN2L (protein, UniProt Q8WWM7 1-1075, looked up)
Ataxin-2-like protein: MLKPQPLQQPSQPQQPPPTQQAVARRPPGGTSPPNGGLPGPLATSAAPPGPPAAASPCLGPVAAAGSGLRRGAEGILAPQPPPPQQHQERPGAAAIGSARGQSTGKGPPQSPVFEGVYNNSRMLHFLTAVVGSTCDVKVKNGTTYEGIFKTLSSKFELAVDAVHRKASEPAGGPRREDIVDTMVFKPSDVMLVHFRNVDFNYATKDKFTDSAIAMNSKVNGEHKEKVLQRWEGGDSNSDDYDLESDMSNGWDPNEMFKFNEENYGVKTTYDSSLSSYTVPLEKDNSEEFRQRELRAAQLAREIESSPQYRLRIAMENDDGRTEEEKHSAVQRQGSGRESPSLASREGKYIPLPQRVREGPRGGVRCSSSRGGRPGLSSLPPRGPHHLDNSSPGPGSEARGINGGPSRMSPKAQRPLRGAKTLSSPSNRPSGETSVPPPPAVGRMYPPRSPKSAAPAPISASCPEPPIGSAVPTSSASIPVTSSVSDPGVGSISPASPKISLAPTDVKELSTKEPGRTLEPQELARIAGKVPGLQNEQKRFQLEELRKFGAQFKLQPSSSPENSLDPFPPRILKEEPKGKEKEVDGLLTSEPMGSPVSSKTESVSDKEDKPPLAPSGGTEGPEQPPPPCPSQTGSPPVGLIKGEDKDEGPVAEQVKKSTLNPNAKEFNPTKPLLSVNKSTSTPTSPGPRTHSTPSIPVLTAGQSGLYSPQYISYIPQIHMGPAVQAPQMYPYPVSNSVPGQQGKYRGAKGSLPPQRSDQHQPASAPPMMQAAAAAGPPLVAATPYSSYIPYNPQQFPGQPAMMQPMAHYPSQPVFAPMLQSNPRMLTSGSHPQAIVSSSTPQYPSAEQPTPQALYATVHQSYPHHATQLHAHQPQPATTPTGSQPQSQHAAPSPVQHQAGQAPHLGSGQPQQNLYHPGALTGTPPSLPPGPSAQSPQSSFPQPAAVYAIHHQQLPHGFTNMAHVTQAHVQTGITAAPPPHPGAPHPPQVMLLHPPQSHGGPPQGAVPQSGVPALSASTPSPYPYIGHPQGEQPGQAPGFPGGADDRIREFSLAGGIWHGRAEGLQVGQDARVLGGE
B3: RFC1 (protein, UniProt P35251 1-1148, looked up)
Replication factor C subunit 1: MDIRKFFGVIPSGKKLVSETVKKNEKTKSDEETLKAKKGIKEIKVNSSRKEDDFKQKQPSKKKRIIYDSDSESEETLQVKNAKKPPEKLPVSSKPGKISRQDPVTYISETDEEDDFMCKKAASKSKENGRSTNSHLGTSNMKKNEENTKTKNKPLSPIKLTPTSVLDYFGTGSVQRSNKKMVASKRKELSQNTDESGLNDEAIAKQLQLDEDAELERQLHEDEEFARTLAMLDEEPKTKKARKDTEAGETFSSVQANLSKAEKHKYPHKVKTAQVSDERKSYSPRKQSKYESSKESQQHSKSSADKIGEVSSPKASSKLAIMKRKEESSYKEIEPVASKRKENAIKLKGETKTPKKTKSSPAKKESVSPEDSEKKRTNYQAYRSYLNREGPKALGSKEIPKGAENCLEGLIFVITGVLESIERDEAKSLIERYGGKVTGNVSKKTNYLVMGRDSGQSKSDKAAALGTKIIDEDGLLNLIRTMPGKKSKYEIAVETEMKKESKLERTPQKNVQGKRKISPSKKESESKKSRPTSKRDSLAKTIKKETDVFWKSLDFKEQVAEETSGDSKARNLADDSSENKVENLLWVDKYKPTSLKTIIGQQGDQSCANKLLRWLRNWQKSSSEDKKHAAKFGKFSGKDDGSSFKAALLSGPPGVGKTTTASLVCQELGYSYVELNASDTRSKSSLKAIVAESLNNTSIKGFYSNGAASSVSTKHALIMDEVDGMAGNEDRGGIQELIGLIKHTKIPIICMCNDRNHPKIRSLVHYCFDLRFQRPRVEQIKGAMMSIAFKEGLKIPPPAMNEIILGANQDIRQVLHNLSMWCARSKALTYDQAKADSHRAKKDIKMGPFDVARKVFAAGEETAHMSLVDKSDLFFHDYSIAPLFVQENYIHVKPVAAGGDMKKHLMLLSRAADSICDGDLVDSQIRSKQNWSLLPAQAIYASVLPGELMRGYMTQFPTFPSWLGKHSSTGKHDRIVQDLALHMSLRTYSSKRTVNMDYLSLLRDALVQPLTSQGVDGVQDVVALMDTYYLMKEDFENIMEISSWGGKPSPFSKLDPKVKAAFTRAYNKEAHLTPYSLQAIKASRHSTSPSLDSEYNEELNEDDSQSDEKDQDAIETDAMIKKKTKSSKPSKPEKDKEPRKGKGKSSKK

Target: T1, G9a and GLP
Assay: Triple SILAC pull-down after UNC0638 treatment of 293T cells, DMSO/UNC0638 ratio of protein captured by 3×MBT;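 note: mass spectrometry (Q-Exactive) SILAC quantitation, DMSO/UNC0638 ratio computed after subtracting 3×MBTD355N mutant pull-down background, only proteins with at least twofold 3×MBT over mutant signal considered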
Assay type: cell-based
Parameters: cells were treated for 24 hours with UNC0638 at 2.5 μM or DMSO vehicle control; endogenous in cells; host or cells: HEK 293T
Details: SILAC ratio DMSO/UNC0638 of protein pulled down with 3xMBT; UNC0638 in heavy SILAC media

| Relative to UNC0638 UNC Heavy [log base 2] | Molecule |
| --- | --- |
| 0.38 | B1 |
| 0.31 | B2 |
| 0.61 | B3 |

Same assay, conditions: SILAC ratio DMSO/UNC0638 of protein pulled down with 3xMBT; UNC0638 in light SILAC media

| Relative to UNC0638 UNC Light [log base 2] | Molecule |
| --- | --- |
| 0.05 | B1 |
| 0.12 | B2 |
| −0.18 | B3 |

Same assay, conditions: average of UNC Light and UNC Heavy experiments

| Relative to UNC0638 Average [log base 2] | Molecule |
| --- | --- |
| 0.22 | B1 |
| 0.21 | B2 |
| 0.21 | B3 |

Tested on: 3×MBT domain of L3MBTL1
Assay: Triple SILAC pull-down, 3xMBT/3xMBTD355N ratio (cytoplasmic, nuclear and chromatin fractions of 293T cells);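 note: proteins quantified with MaxQuant, requiring at least two unique peptides and quantification in both label directions, normalized to the mean of proteins from a digested loading control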
Assay type: binding, human
Details: SILAC ratio, pull-down 3xMBT vs 3xMBTD355N; experiment with UNC0638 in heavy SILAC media

| Molecule | 3xMBT/D355N UNC Heavy [log base 2] |
| --- | --- |
| B1 | 1.58 |
| B2 | 2.64 |
| B3 | 1.29 |

Same assay, conditions: SILAC ratio, pull-down 3xMBT vs 3xMBTD355N; experiment with UNC0638 in light SILAC media

| Molecule | 3xMBT/D355N UNC Light [log base 2] |
| --- | --- |
| B1 | 2.26 |
| B2 | 2.66 |
| B3 | −1.32 |
